# Experimental data from the supplement of paper PMC10126150.
# ± gives the standard deviation of the averaged measurements.
# System: ATP
# Test: switch fluorescence ratio, 500 uM ATP over buffer (Cy3 cluster intensity, sum of 5 cycles each) (fold (ratio)); higher = stronger signal-on switching upon ATP binding; sequences stand for … in TCGTCGGCAGCGTCAGATGTGTATAAGAGACAGTTTTTTTTTTTTTTTTTTTTTTTTT…TC
# Conditions: aptamer strand: ATP DNA aptamer (quencher-CACCTGGGGGAGTATTGCGGAGGAAGG + anchor), 100 nM annealed; ATP concentration: 500 uM
# Outline: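 Cy3-labelled switching-strand clusters on a modified Illumina MiSeq flow-cell were annealed to 100 nM quencher-labelled ATP aptamer and imaged first in selection buffer, then after 15 min with 500 uM ATP at 22 °C. NaOH stripping and re-annealing separated each of five buffer/ATP cycles, and clusters outside 100-1000 RFU were excluded. The fluorescence ratio sums target-cycle Cy3 intensity over buffer-cycle Cy3 intensity per cluster and averages it per switch-domain sequence.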
# 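Note: ATP exposure 15 min at 22 °C before imaging.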
row,Sequence,switch fluorescence ratio
1,ACGTTGATTC,1.03 ± 0.047
2,AAAGTAGGCT,1.01 ± 0.053
3,ATCGGCTGTG,0.983 ± 0.022
4,CTATGGGGTT,0.977 ± 0.011
5,TTGGTGACGT,1.03 ± 0.022
6,GAATTCTCGT,0.969 ± 0.024
7,GATGTCAGGG,1.05 ± 0.021
8,AGCTTGCTAT,0.97 ± 0.011
9,ATAATTAACG,0.986 ± 0.034
10,GGGGGTATCG,0.967 ± 0.021
11,GTTGAAGGGA,0.983 ± 0.018
12,CTCGCGACGA,1.06 ± 0.019
13,TTTTTGATAA,0.9683 ± 0.0063
14,AAAACACGTA,1.13 ± 0.035
15,TTGGCTTGTC,0.954 ± 0.019
16,AGGTTGTTGG,0.966 ± 0.016
17,GGGGGCTGTT,1 ± 0.014
18,GGAGGGATCT,0.966 ± 0.011
19,CATTCGTCGA,1.2 ± 0.04
20,CACGACTTCC,2.27 ± 0.12
21,TTTGCGAACA,1.06 ± 0.079
22,AAGCACGTTG,1.05 ± 0.027
23,TTGATTAGAT,1.014 ± 0.0016

row,Sequence,switch fluorescence ratio
1,TTGTTTCAGT,0.997 ± 0.028
2,TTTGTGGGGT,1.01 ± 0.047
3,TAGTAAATCG,1.007 ± 0.0078
4,ACTTGGGTAG,0.9928 ± 0.0011
5,TCTGATGGCT,1.04 ± 0.05
6,TTCAGAGGAT,1.02 ± 0.048
7,GCGAGGGGCA,0.992 ± 0.025
8,GCGTCCGCTG,1.22 ± 0.039
9,TGCATCTGAG,1 ± 0.021
10,GGGGGCCGCT,1.02 ± 0.036
11,AATGTGAAAA,0.976 ± 0.053
12,CGAGTACTGG,1.03 ± 0.016
13,TATTCGAGGC,1.06 ± 0.052
14,CGGGGGAGCT,1.02 ± 0.029
15,TTCACCCGGT,1.11 ± 0.12
16,GGGGTAGTG,1.03 ± 0.067
17,GTGGGAGGTT,0.948 ± 0.036
18,GTGGTCGAGT,0.989 ± 0.01
19,TATGATTCGG,0.992 ± 0.057
20,ATGATGAGGT,1 ± 0.017
21,CGATGGGTCG,1 ± 0.066
22,GCGGTACAGC,0.9782 ± 0.0069
23,ATCGAGTTAG,0.978 ± 0.012

row,Sequence,switch fluorescence ratio
1,ACTAGTATTA,1 ± 0.036
2,ACCCTTTTTG,0.986 ± 0.025
3,TTTCAGGGAG,1.04 ± 0.056
4,AAGCACGGTT,1.08 ± 0.093
5,TTTTTGGGGG,0.997 ± 0.035
6,CATGGGGTGC,1.04 ± 0.024
7,CCGTTTAGGG,0.999 ± 0.016
8,AGAGGGCGTC,1.04 ± 0.046
9,CGGCGAGAAC,1.045 ± 0.0023
10,AAGGTTCGGG,0.994 ± 0.018
11,TGGGATAGGT,1.01 ± 0.06
12,TTTCCTGGGG,1.04 ± 0.039
13,ATTATGGGAT,0.996 ± 0.029
14,GCTCAAAGCT,1.01 ± 0.043
15,TGGCGCCACT,0.976 ± 0.013
16,ATTAATCTGA,0.96 ± 0.029
17,TTTAAAGGGA,1.06 ± 0.17
18,CTGGGAGATT,1.02 ± 0.039
19,CGATTAAGGC,1.003 ± 0.0026
20,CTGGGCACAT,1.05 ± 0.015
21,CCAGTGTGGT,1.07 ± 0.074
22,TACAAGTAT,0.997 ± 0.028
23,TAGTGTCTAG,0.97 ± 0.07

row,Sequence,switch fluorescence ratio
1,CCACACTGAT,1.025 ± 0.0025
2,CAAGTTAAGG,1.02 ± 0.013
3,ATACTGCTCT,0.968 ± 0.059
4,TCTTTGGGGT,1.01 ± 0.012
5,GAGACAATTC,1.06 ± 0.017
6,AGTTTTTTGC,0.908 ± 0.025
7,TGTGGGGTCT,1.02 ± 0.038
8,ATAGGACAAC,1.038 ± 0.0081
9,GCGATTCGGG,0.978 ± 0.01
10,GGGGTTTCTT,0.987 ± 0.048
11,GGTTTATATT,1.01 ± 0.05
12,CGACTGCAGT,1.19 ± 0.014
13,GCAGTCGCAA,1.1 ± 0.043
14,TGAGGTACCG,1.0235 ± 0.00091
15,TCGGGTACTG,0.979 ± 0.093
16,AGGTTTATAT,0.999 ± 0.016
17,CATAATTTTA,1.007 ± 0.01
18,TAATTTCTGT,1.01 ± 0.024
19,GGTGTAGTTG,0.999 ± 0.037
20,GTAGGGGGCG,1.01 ± 0.017
21,AATCGGGTAG,1 ± 0.014
22,TGGTTTAATT,1.01 ± 0.017
23,TCCCTGGTAT,1.04 ± 0.014

row,Sequence,switch fluorescence ratio
1,TAAGTATCGC,1.03 ± 0.036
2,CCAGGGTATA,1.03 ± 0.032
3,TTGCGTTGTT,0.9695 ± 0.0043
4,GTTGTTGCAA,1.13 ± 0.21
5,AGGGAATAGG,1.01 ± 0.041
6,GCCTTGTGCA,0.995 ± 0.017
7,TCCATTGAAC,1.017 ± 0.0026
8,CTAGGTGGGG,1.02 ± 0.025
9,GGGGGTAGGT,0.985 ± 0.036
10,TTGGATGGGT,0.959 ± 0.05
11,ACGTTAGGGG,1.14 ± 0.14
12,ACATAACGAA,1.21 ± 0.013
13,CATGATTTGG,0.982 ± 0.028
14,GGGTTGACCC,0.993 ± 0.024
15,AGCTTCGTGG,0.971 ± 0.019
16,CGACCAGATA,1.078 ± 0.0037
17,ATAATCTATC,0.995 ± 0.045
18,TTTATGAGGA,1.02 ± 0.021
19,ATGTCAAGGA,0.985 ± 0.042
20,GGGGCGGGTA,1 ± 0.078
21,GAGTCTTATA,1.01 ± 0.031
22,CTATTTGACT,0.9576 ± 0.0028
23,AAGAGGTTTT,1.01 ± 0.02

row,Sequence,switch fluorescence ratio
1,CTTGAATCGT,0.987 ± 0.013
2,CCTACCGTGG,1.31 ± 0.11
3,TATCGTATGT,0.991 ± 0.027
4,CGATATTGCA,1.02 ± 0.025
5,AATTATTCGT,1.024 ± 0.01
6,GTCAGCCTTT,0.983 ± 0.025
7,GGTTTCGGGC,1.03 ± 0.044
8,GGGATAGGCT,1.02 ± 0.021
9,ATTGATAGGG,1.03 ± 0.037
10,TTGACCTGTG,1.02 ± 0.013
11,TAGGGGTAGA,1.017 ± 0.0054
12,CACGCATGTT,1.09 ± 0.015
13,ATGGACAATA,1.07 ± 0.026
14,ACCAATTTTT,1.03 ± 0.026
15,TGCTTATCGC,0.995 ± 0.024
16,GCAAGACAAG,1.05 ± 0.036
17,TAGTGAGGGT,1.01 ± 0.021
18,GATTTTTGTT,1.01 ± 0.034
19,AGTAGAGGGA,0.995 ± 0.019
20,TTCTTCGTTA,1.03 ± 0.019
21,TGGGACATGC,0.987 ± 0.0088
22,AGATAACTCT,1.012 ± 0.0083
23,TTAATGGAGG,1.04 ± 0.017

row,Sequence,switch fluorescence ratio
1,TTCGATGGTG,0.987 ± 0.0044
2,CTTATTTCCG,1.032 ± 0.0096
3,GTTCACTTTT,1.02 ± 0.036
4,TAAGACGGTT,1.01 ± 0.015
5,CATGGTGAGC,0.956 ± 0.041
6,TTGTCATGAT,1.006 ± 0.006
7,TTGAGCCTGT,0.977 ± 0.028
8,TATGTAATTG,0.965 ± 0.058
9,TTGTATAGTG,0.933 ± 0.033
10,TCTGGTATGA,1.01 ± 0.015
11,GTTTAGAGGT,0.9925 ± 0.0082
12,TCACTCATTT,1.01 ± 0.019
13,GGGTTTGGCT,1.01 ± 0.029
14,CTGAAGGAGG,0.971 ± 0.037
15,GTGATTTAGA,0.9969 ± 0.0054
16,ATTTTAGGAC,1.03 ± 0.025
17,AGGGTTGGGA,0.9962 ± 0.0068
18,TACTGGAGTA,1.01 ± 0.018
19,GCATAAGCTC,1.06 ± 0.062
